From the supplement of paper PMC10567573

B1: SLC2A12 (parent)
chain: LTLVFFVQITGQPNILFYASTVLK
B2: CAMK2B (parent)
chain: YQQIKAGAYDFPSPEWDTVTPEAK

Variants of: B1
Assay: protein stability index of a GFP-peptide fusion (GPS, HEK-293T) (PSI 1-6); higher = more stable
Conditions: c terminus: a fixed tail appended
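Further: lentivirally expressed fusions sorted by FACS into six bins by GFP to DsRed ratio, PSI derived from sequencing read proportions per bin multiplied by bin number.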

Protein stability index of substitutions, site by site:
I15: Q 2.46; S 4.88; W 2.63; Y 3.83
L16: A 4.05; C 2.98; D 2.58; G 2.02; H 1.6; M 3.19; P 4.12; R 3.61; T 3.51
F17: A 1.86; H 3.19; K 3.38; M 2.52; N 2.66; Q 3.16; S 2.69; T 3.28; W 3; Y 2.63
Y18: A 2.49; D 2.93; E 2.04; F 3.63; I 2.47; K 2.6; L 3.04; M 2.05; N 1.59; P 4.25; S 3.38; T 2.31
A19: K 2.5; L 3.37; M 2.4; R 2.55; T 2.42; V 2.66
S20: A 2.52; C 2.27; E 3.34; F 4.03; G 3.23; I 4.31; K 3.97; M 2.78; N 2.84; P 2.92; Q 2.48; T 4.03; W 4.76; Y 3.22
T21: C 3.33; D 3.9; E 2.46; F 3.22; I 3.71; L 2.38; M 3.09; N 3.31; P 3.23; Q 2.97; S 3.13; W 3.97
V22: A 4.16; C 2.2; D 3.37; F 2.78; I 3.81; L 2.28; N 2.78; P 3.9; Q 4.34; R 3.38; S 1.93; Y 3.57
L23: E 2.83; H 2.38; M 3.81; N 2.74; Q 3.05; R 3.18; S 3.26; T 3.09; V 2.58; W 1.83; Y 3.92
K24: A 2.9; D 2.73; E 3.5; F 3.17; H 2.21; I 2.92; L 1.12; N 4.33; P 1.8; Q 4.06; S 3.98; T 2.2; V 3.5; W 2.76; Y 4.23

Variants of: B2
Assay: as above
Conditions: c terminus: a fixed tail appended

Protein stability index: each site, then its substitutions
Y1: A 4.94; C 4.45; D 5.38; E 5.13; F 3.33; G 5.11; H 4.58; I 3.89; K 4.88; L 4.75; M 5.04; N 5.21; P 4.94; Q 4.92; R 4.83; S 4.94; T 4.88; V 4.69; W 4.15
Q2: A 3.12; C 2.87; D 4.78; E 4.64; F 3.46; G 3.7; H 2.88; I 2.28; K 3.8; L 3.35; M 3.95; N 4.51; P 3.67; R 4.06; S 4.34; T 3.67; V 1.8; W 3.06; Y 3.6
Q3: A 2.11; C 2.17; D 3.94; E 4.59; F 2.55; G 2.68; H 3.28; I 3.15; K 2.75; L 3.38; M 2.88; N 3.62; P 3.03; R 2.22; S 2.8; T 3.28; V 3.44; W 2.09; Y 2.6
I4: A 3.46; C 3.09; D 4.32; E 4.26; F 3.19; G 3.34; H 3.56; K 3.42; L 3.81; M 3.66; N 3.41; P 3.58; Q 3.78; R 3.06; S 3.02; T 3.58; V 3.93; W 2.05; Y 3.21
K5: A 4.07; C 3.58; D 4.39; E 4.84; F 3.12; G 3.88; H 3.46; I 3.35; L 3.6; M 4.04; N 3.92; P 3.71; Q 3.77; R 3.34; S 3.64; T 4; V 3.77; W 1.95; Y 3.11
A6: C 3.37; D 4.28; E 4.41; F 2.9; G 3.13; H 3.24; I 2.77; K 3.22; L 3.09; M 3.96; N 3.44; P 3.82; Q 3.92; R 2.38; S 3.59; T 3.62; V 3.12; W 2.28; Y 3.16
G7: A 3.79; C 2.77; D 3.99; E 4.23; F 1.86; H 3.69; I 3.25; K 3.27; L 3; M 3.23; N 3.77; P 3.86; Q 3.92; R 2.96; S 3.78; T 3.83; V 3.53; W 2.31; Y 1.87
A8: C 3.44; D 3.91; E 3.95; F 2.84; G 3.61; H 3.79; I 3.05; K 3.66; L 3.03; M 3.44; N 3.95; P 3.02; Q 3.68; R 3.14; S 3.75; T 3.44; V 3.16; W 2.26; Y 3.31
Y9: A 4.37; C 3.79; D 4.73; E 4.71; F 3.5; G 4.6; H 4.14; I 3.9; K 3.99; L 4.04; M 4.1; N 4.26; P 4.17; Q 4.48; R 3.64; S 4.3; T 4.23; V 4.13; W 2.48
D10: A 2.72; C 2.25; E 3.55; F 1.98; G 2.23; H 2.54; I 1.99; K 2.25; L 2.4; M 2.7; N 2.52; P 2.7; Q 2.67; R 2.05; S 2.39; T 2.61; V 2.41; W 2.83; Y 1.79
F11: A 4.58; C 4; D 4.63; E 4.72; G 4; H 4.2; I 3.8; K 3.91; L 3.97; M 4.04; N 4.37; P 4.67; Q 4.24; R 3.73; S 4.36; T 4.43; V 4.15; W 3.15; Y 3.95
P12: A 2.94; C 2.76; D 4.01; E 4.09; F 2.25; G 3.71; H 3.21; I 3.21; K 3.3; L 2.9; M 3.08; N 3.94; Q 4; R 2.34; S 3.29; T 3.36; V 2.81; W 3.5; Y 3.71
S13: A 3.24
